One substance from PMC6987245 can be followed below.

Test [1] addresses TAMRA-labeled UBXN1 UBA(ext1-52) domain (UniProt Q04323). As to the kind of experiment: MST; TAMRA-UBA peptide in FP binding buffer, K6 diUb 1.53 to 50 μM, 30 min incubation, hydrophobic capillaries, Monolith NT.115, 30% LED and 40% IR-laser power.
Test [2] has the same target. As to the kind of experiment: fluorescence polarisation; 5 nM TAMRA-labeled UBA peptide fixed, diubiquitin 0.78 to 25 μM in six steps, triplicate; overnight incubation at 4°C, read at room temperature; 20 mM Tris pH 7.6, 150 mM NaCl, 0.5 mg/ml BGG, 1% TX-100; one site binding (hyperbola) fit.

Chain of UniProt Q04323 (Q04323 1-52): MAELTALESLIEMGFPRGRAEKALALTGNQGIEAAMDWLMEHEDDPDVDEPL

On to “K6-linked diubiquitin (native, unlabeled) (from UniProt P0CG48 1-76; P0CG48 1-76)”, for which the dissociation constant Kd was 1050 nM in test [1] and 1430 nM in test [2].
